B1: TPR t1 (parent)
chain: GACCAAUCUGCCCUCAGAGCUCGAGAACAUCUUCGGAUGCAGAGGAGGCAGGCUUCGGUGGCGCGAUAGCGCCAACGUCCUCAACCUCCAAUGCAUCCCACCACAUGAUGAUGCCUGAAGAGCCUUGGUUUUUUG

Variants of: B1
Test: polymerase ribozyme fitness, log enrichment relative to wild type (log ratio); higher = more active; in vitro selection for triplet polymerase activity
Method in brief: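 PCR was used to build mutant libraries for each subunit of a heterodimeric triplet polymerase ribozyme, which were then transcribed. A single in vitro selection round, in triplicate, used a frozen incubation at −7 °C and recovered extended constructs by gel excision, streptavidin beads and RT-PCR. Fitness is the logarithm of genotype enrichment relative to wild-type enrichment, averaged over replicates with inverse-variance weights. The logarithm is base 2, and after Illumina sequencing only genotypes with ≥10 input reads and ≥1 read per output were kept.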

| Variant | polymerase ribozyme fitness (log ratio) |
| --- | --- |
| G51A G60A C80A A95G A111G | -4.57 |
| G52C C115A | -1.03 |
| G51A C89G | -4.83 |
| G51U A68C A91C G110C | -7.47 |
| A50U G69C | -1.7 |
| G52U C79A | -1.05 |
| G52A C62U C79G | -0.394 |
| G51C U112C | -1.34 |
| G52C C64U C123U | -0.169 |
| G52U A121G | 1.06 |
| G52A G57A U129A | -2.51 |
| G52U C72U | -0.747 |
| G52A U54A G69U G77U C80G A83C A119U | -3.11 |
| G51A A74G | -1.96 |
| G51U C73G | -3.52 |
| G51C G60A U112G G117C | -7.03 |
| G52A C79A | -0.667 |
| G52A C79U | -0.581 |
| G51C C82A | -4.42 |
| G51U A74G | -2.72 |
| G51U G61U G127A | -4.92 |
| A50U G69A C101A U130G | -6.9 |
| G51A A103G | -6.42 |
| G52U C56U U116A | -4.17 |

| Variant | polymerase ribozyme fitness (log ratio) |
| --- | --- |
| G52U A83U G127A | -3.16 |
| G52C A84G U87C A111G | -2.78 |
| G52A C73A | -0.179 |
| G52A C73G | -2.63 |
| A50U U92G | -3.4 |
| A50U U92A | -5.22 |
| G52A A68G G93A | -5.07 |
| G52A C98A | -4.54 |
| G52U C72A C104U A111G G113A | -2.25 |
| A50U G63A U106C | -3.09 |
| A50U G61U C94A G110U | -4.5 |
| G52C C56A C102U U133A | -2.78 |
| G51C G61A G120A U132A | -2.03 |
| G52A C72A | 0.151 |
| G52C G61C | -3.04 |
| G52U C70U G113U | -5.82 |
| G52C C56A C72G U132C | -3.89 |
| A50U G61C C79G U106C C115U C124A | -5.24 |
| G51A C62A A75C U131A | -5.36 |
| G51C G127U | -5.2 |
| G51A G61U G128C | -5 |
| G51C G52A U81C | -5.02 |
| G52A C70U C104A C124G | -3.65 |
| G52A C102A | -1.79 |

| Variant | polymerase ribozyme fitness (log ratio) |
| --- | --- |
| G51U G69U U87G | -0.427 |
| G52U C73U | -0.9 |
| G51A G52A U112A U116C G128A | -6.33 |
| A50U U81A C85G | -0.884 |
| G52A C85G C124A | 0.15 |
| A50U G65A U78G G120A U126A U129G U130A | -7.26 |
| G52A G60A C79A C115A U132A | -0.536 |
| G52C U96C G110U | -1.98 |
| G52C U54G G69A U87C A100U | -6.57 |
| A50U U109A A111C G120U A121G | -6.95 |
| A50U G122A | -1.23 |
| G51U A84C C88A A121C | -1.74 |
| G51A G69C U112A | -5.2 |
| G51C C53A | -4.19 |
| G51C G71A C82G C85A | -4.52 |
| G51U C72A U130G | -3.04 |
| G52A C85G | -1.03 |
| G51C C53G C94G | -5.44 |
| G52C G63C U87C | -0.694 |
| G51U C88A U106A U112C | -3.27 |
| G51U C56A C62U U92A C101U | -6.34 |
| G52A C123A | -0.148 |
| G51A G60C U92C U130A | -6.22 |
| G52C C123G U133G | 0.949 |

| Variant | polymerase ribozyme fitness (log ratio) |
| --- | --- |
| G52C C114U | -3.57 |
| A50U G69U C80G C98U G113A | -3.31 |
| A50U U109A | -5.95 |
| G52A U78A C115A | 0.0466 |
| G52A U126C | -1.17 |
| G52C U54G C82G | -1.46 |
| G51A C53A G61A C73U | -2.68 |
| G52A C102U G120A | -1.56 |
| G51C G135U | -4.93 |
| G51U C62U | -3.78 |
| G52A U133A | -0.415 |
| A50U U59A G60C C80G C88U | -2.26 |
| G51A C64G C101G G113A C123A | -6.84 |
| G52A C73G C85A | -1.93 |
| G51U G61U | -3.14 |
| G52U C56U A84U | -1.37 |
| G51A G57U | -1.5 |
| G51A G57U U81C C101U | -2.52 |
| G51A C73G | -0.931 |
| G52A C89G U129G | -2.09 |
| G52A C70U C102U | -2.87 |
| G52A C56A | -0.146 |
| G52A C53A | -0.436 |
| G52A C53U | -0.621 |

| Variant | polymerase ribozyme fitness (log ratio) |
| --- | --- |
| G52A G93U G120A | -0.0896 |
| G51A C123G | -0.157 |
| G51A C123A | -1.89 |
| G52U C73U C104G C115A | -6.56 |
| G52A G60U C82A C88U A90G U116A U130A | -6.12 |
| A50U G110U | -4.06 |
| A50U G110A | -2.67 |
| A50U G135U | -2.36 |
| G52A C104U G113C | -2.55 |
| G52U C104A | -2.28 |
| A50U G63U C89U | -3.86 |
| G51A U78C | -2.47 |
| G52U C115A | -0.782 |
| A50U U125G U129C | -2.41 |
| G52C G93C | -1.82 |
| G52C U81A U130A | -2.3 |
| G51A C72G | -2.71 |
| G52C A100C C114A | -4.06 |
| G51U G61C U133G | -2.81 |
| G52U A121C G127A | -0.484 |
| G51A A74G U131A | -1.77 |
| G52A G57A | -1.07 |
| G51U G120U | -3.69 |
| G51U G120C | -2.42 |

| Variant | polymerase ribozyme fitness (log ratio) |
| --- | --- |
| A50U U87G | -1.44 |
| G51A G63U C80A U96G | -5.76 |
| A50U U81C | -1.83 |
| A50U U81A | -0.662 |
| A50U U96A | -1.77 |
| G52C U55G A83C C115U A118G | -2.39 |
| G52C U131A | -0.555 |
| G52U A105C | -3.57 |
| G51A C62A G117U U134G | -5.73 |
| G52A C79U G120U | -0.265 |
| G52A A74G C79G U96G | -0.912 |
| A50U U106G | -2.78 |
| G52U C72U A121C | 0.242 |
| G51U G60A | -2.28 |
| G52C C70U C76U U106A | -2.68 |
| G52C U59G A118G | -0.37 |
| G51A G57C U112G | -1.7 |
| G51U U112A | -3.68 |
| G51A G61U | -2.94 |
| G51A G61C | -3.7 |
| G52C U132A | -1.09 |
| G52C C73U G110U | -2.38 |
| G51C G57C C73A G77U U78G | -3.02 |
| G51C G61A C94U C97U | -3.52 |

| Variant | polymerase ribozyme fitness (log ratio) |
| --- | --- |
| G51U G60U C73G | -2.23 |
| G52U C82U G110U | -2.9 |
| G51U G61C G117C U131G | -7.34 |
| G52C C101A | -2.34 |
| G52U A105G A121C | -2.06 |
| G52A C56U C72U G113C U125A | -2.88 |
| G51U A74C A121C | -0.422 |
| G51A G71C U112C | -2.08 |
| G52A G69A | -3.61 |
| G52A G69C | -1.72 |
| G52C C56G G71U C124U | -3.19 |
| G51A C64A A84C G117C | -6.48 |
| G51U | -3.23 |
| G51C | -3.7 |
| G51A | -2.49 |
| G51A G61A U125A | -2.21 |
| G52U C72A C85A | -1.3 |
| G52A C72G A95C | -2 |
| A50U U59A | -0.619 |
| G51U U112A U133C | -3.27 |
| G52C C70A G117U G120U | -4.71 |
| G51U G52C U96C | -3.75 |
| G52A C56U G93A | -0.382 |

From the RNAGym collection of RNA variant scans (doi:10.1073/pnas.2313332121)
